# In the RNAGym collection of RNA variant scans (doi:10.1073/pnas.2313332121):
# B1: TPR t1 (parent)
# chain: GACCAAUCUGCCCUCAGAGCUCGAGAACAUCUUCGGAUGCAGAGGAGGCAGGCUUCGGUGGCGCGAUAGCGCCAACGUCCUCAACCUCCAAUGCAUCCCACCACAUGAUGAUGCCUGAAGAGCCUUGGUUUUUUG
# Variants of: B1
# Test: polymerase ribozyme fitness, log enrichment relative to wild type (log ratio); higher = more active; in vitro selection for triplet polymerase activity
# Method in brief: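 Mutant libraries for each subunit of a heterodimeric triplet polymerase ribozyme were made by PCR and then transcribed. Each library underwent one round of in vitro selection in triplicate: annealing with a biotinylated primer, the partner subunit and triplets, frozen incubation at −7 °C, gel excision of extended constructs, streptavidin-bead capture and RT-PCR. Input and output libraries were Illumina-sequenced, and only genotypes with ≥10 input reads and ≥1 read per output were kept. Fitness is the logarithm, base 2, of genotype enrichment over wild-type enrichment, computed from inverse-variance-weighted replicate averages.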
row,Variant,polymerase ribozyme fitness (log ratio)
1,A5G G42U C56G A91C C115G,-3.59
2,A5U A6G C53U G117A U129A,-2.59
3,A5U G69U G110A,-0.583
4,A5G U9G U21A C56U A83U,0.0637
5,A5U C12G C89U A103C G117U,-6.59
6,A5U C56G,-1.04
7,A5U C56U,-0.648
8,A6C C13U A27U C62A C82A,-4.43
9,A5G U9C C124U,1.89
10,A6C A29U A91C,-4.88
11,A6C C11A A18C C73U,-4.87
12,A5G G71U A111C G127A,-1.59
13,A5G C8U A121C,1.12
14,A5U G60U U116C,-1.69
15,A5U U21C C97U,-1.38
16,A5G C34G G69U C82G,-2.92
17,A6C C72U A91G A121U G128C,-0.723
18,A5U C40U C88A C101A A121U,0.119
19,A5G C11A C70A G71A A121C G122U G127A,-3.67
20,A5U A46U U81A,-2.98
21,A5G A84U U112G,-0.141
22,A6C A121U,1.95
23,A5G C13U G44U U96G U133A,-2.01
24,A5U C123A,1.2

row,Variant,polymerase ribozyme fitness (log ratio)
1,A5G C13G G39A G51A U112C,-2.65
2,A6C C97U,-1.01
3,A6C C97G,-5.16
4,A5G C28A U33G U55A C73U A100C C124A,-5.92
5,A5G A16C A41G C62U,-2.75
6,A5C U125G,-0.516
7,A6C C11A C72G C85U U112G,-2.46
8,A5U C13G G63A C89U U92A G120A,-5.85
9,A5U G19A G52A G57A A95G,-4.08
10,A5U U87G U130C,0.627
11,A5G A46U C56U C73G,-2.61
12,A6C C72U G93U A100U,-2.39
13,A5U A66C G113U C124A,-4.62
14,A5U U14A C53U U112A,0.0341
15,A5G G45U A46C G61A U78G C115U,-2.84
16,A5U C22A G60U,-6.59
17,A5U A6C G57U C123U,0.75
18,A5G C22G C73G G93U G110A,-6.4
19,A5U C13U G47A G63U A91U U109C G127C,-6.28
20,A5U C72U U81C,-0.617
21,A5U U54G C79A G110C,-6.31
22,A5U G10U C49G C62G,-4.17
23,A5U U9G G36A G39A U96G,-5.14
24,A5G U14A,-1.75

row,Variant,polymerase ribozyme fitness (log ratio)
1,A5U C72G U106C,-0.417
2,A5U U21A,0.185
3,A5G A74G A118C,-3.85
4,A5U U9A U32C A37U C49U G69U G93A,-1.24
5,A5G A37C G58U G60U U87A,-1.82
6,A6C A37G G47C C64U U87A G120C C124G,-2.79
7,A5U C49G C53A G71U,-0.914
8,A5U G63U U133A,-2.34
9,A5G G57U U78G U106A G110A,-1.97
10,A5G A91U,-1.78
11,A5G C72G,-0.844
12,A5G C72U,-0.625
13,A5U G52C C62A U112A,-0.939
14,A5G U78C C80A,-2.8
15,A5G C79U,0.091
16,A5G G61A C94A,-0.707
17,A5U C72U G113U G120U U130C,-4.48
18,A5G C49G,-1.85
19,A5G G10A C72U A91U,-2.06
20,A5G G36U G48A G61C G122U C123U,-1.93
21,A5G G10A C15A G23C U32G G61C A90C,-6.73
22,A5U C12U C49U C94U,-2.22
23,A6C C72U G120U U133A,-0.162
24,A5G C8U G61U C94U,0.251

row,Variant,polymerase ribozyme fitness (log ratio)
1,A6C C12G G57U,-0.469
2,A6C A37C,-0.884
3,A5U C49U C70U,-1.06
4,A5U C104A,-2
5,A6C C11U G63C,-1.94
6,A6C A118U,0.712
7,A5G C20U C53A G58A C99U,-4.64
8,A5G G113A,-0.636
9,A5U G48C,-2.24
10,A5G G44A G71U A83C C86U,-1.87
11,A5U C22U A50U U54G,-6.42
12,A5U A6C A26G G44A U54C A84C C94U,-4.49
13,A6C C13U A37C G69U C98G,-4.9
14,A5U G60A U78A C97U,-1.08
15,A5G C8U U38G U106A C114A,-1.52
16,A5U C62G A90G C123U,-0.143
17,A5U G61C,-1.74
18,A5U A18C G113A A118U U131A,-4.6
19,A6C C13U U33A G45U G51C A68U A121U G122U,-6.98
20,A5U G17A G69A C79U G113U,-6.54
21,A6C C72G,-0.682
22,A6C C70G C82A,-2.15
23,A5U C15U G48A C70A,-3.43
24,A5U C8U G93A A105G,-2.84

row,Variant,polymerase ribozyme fitness (log ratio)
1,A5G G36U G63C A111C A119C,-4.21
2,A5U U125A U133G,-0.817
3,A5U C64U C85G C86U U109A C124G U133G,-6.39
4,A5U A46C C53U U96G C102U,-4.66
5,A5U C56G C70A,-3.29
6,A5U A6C C49G U54A,-0.438
7,A5U A6U U9G C28A C34A G60A A121C,-6.95
8,A6C C15A U33G C124G,-5.85
9,A5U A46C C73A C98U,-1.57
10,A5U A6G G45C G69U A95U,-2.34
11,A5G A121C,0.258
12,A5U G63A,-0.665
13,A5U G63U,-1.8
14,A6C C70A C73U,-2.44
15,A6C C15G A46C G107U G117C,-4.61
16,A5G A50C,-0.262
17,A5G A16U G61U A66C U129A,-3.64
18,A5G C8G G113U,-1.74
19,A5U G63A U125A,-2.08
20,A5G G58A G63A,-0.764
21,A5U G71U C72U C101G G117U,-5.12
22,A5U C28U A37U C104U C123G,-3.39
23,A5U A46U G71C U81A,-4.5
24,A5G U38G G39C,-3.2

row,Variant,polymerase ribozyme fitness (log ratio)
1,A5G C49G U116G G117C,-3.05
2,A5U C53U G63A C79G G127C,-2.9
3,A5G C28G U78A U96C G110U,-0.656
4,A5G C85G,-2.35
5,A5U A27G G60U,-4.01
6,A5G C56A G69A C86A,-3.95
7,A5U G57A G63U C89G U112C U126A,-3.35
8,A5U A50U G61U C88G,-1
9,A5G G63A,-1.41
10,A5U G71A,-1.5
11,A6C C40A C62U C88A C104A,-5.43
12,A6C C13G G69A,-3.82
13,A6C G23A C98A C115G,-7.8
14,A5G U78A A95C U106G,-3.66
15,A5U A18C A111C,-2.56
16,A5U G69U,0.406
17,A5U A37C G113U,-3.79
18,A5G A43G G63A U112G,-5.31
19,A5U C12G G58C A90U C124G G128A,-2.47
20,A5U A41U C82G G120A U125G,-2.77
21,A6C C8A C13G A43U G69C C88A,-2.92
22,A5U G39A G60U C70U,-2.4
23,A5U A84U C97U,-1.7
24,A6C C82A C89A,-2.13

row,Variant,polymerase ribozyme fitness (log ratio)
1,A5U G44C C70U A84C C104A G117C,-7.15
2,A5U C72U,-0.719
3,A5U G36C G48U C85U,-2.32
4,A6C G19C A43U A50C U96G,-4.2
5,A5G G10U G42U,-1.51
6,A5U C8U C40U C123A,1.55
7,A5U A119G,0.901
8,A5U C12G C49G U81A G127A,-4.64
9,A5U C8G C80A A83U,-3.88
10,A5U A91U,-3.29
11,A5U C28U G69A C124U U133G,-4.96
12,A6C A27C G110C U130C,-6.2
13,A5U U21C C72G C97U,-1.7
14,A5G C82G C97A C124A U125G,-4.89
15,A5U A6C C11U,-0.244
16,A5U C53A C104U G113C,-1.6
17,A5U C40U G42C,-2.03
18,A6C A95G C102U C124G,-0.561
19,A5U G113A G122A G127C,-3.33
20,A5G C56U,-0.367
21,A6C A41U U106A,-1.37
22,A5U C15A C62A G122A,-4.9
23,A6C C62G G113A,-3.34
